The source of these data is the nanobody polyreactivity screen of Harvey et al. (2022).

This series in a line: yeast display, Sf9 membrane polyspecificity reagent, FACS + sequencing; frameworks hold sequencing errors. The procedure, abridged: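 Nanobodies came from a synthetic yeast display library in Saccharomyces cerevisiae BJ5465, induced with galactose for 36–48 hours and stained for 1 hour at 4 °C with 10% biotinylated, detergent-solubilized Sf9 membrane reagent. Cells were enriched on streptavidin microbeads and then FACS-sorted, with low and high (top ~1%) gates set on anti-HA fluorescence for expression and streptavidin fluorescence for reagent binding. Each polyreactivity label reflects the gate a clone came from. Genes were amplified by colony PCR, sequenced by MiSeq 2 × 250 and filtered by CDR length.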
For “QVQLVESGGGLVQAGGSLRLSCAASGSTLVTYAMGWYRQAPGKERELVAGISSGGSTNYADSVKGRFTISRDNAKNTVYLQMNSLKPEDTAVYYCAAQGSLTWWAATFIYDYWGQGTQVTVSS”, the “polyreactivity (PSR sort gate)” value is recorded as “low polyreactivity”.

As for “QVQLVESGGGLVQAGGSLRLSCAASGNTFYWYVMGWYRQAPGKERELVARITSSGGSTNYADSVKGRFTISRDNAKNTVYLQMNSLKPEDTAVYYCAADDIYLYGGGTDYYFWGQGTQVTVSS”, the “polyreactivity (PSR sort gate)” value is reported as “low polyreactivity”.

Take “QVQLVESGGGLVQAGGSLRLSCAASGITFPANAMGWYRQAPGKERELVAAISSSGGSTYYADSVKGRFTISRDNAKNTVYLQMNSLKPEDTAVYYCAAYYGPSRSLYYYWGQGTQVTVSS”: the “polyreactivity (PSR sort gate)” value is “high polyreactivity”.

In the case of “QVQLVESGGGLVQAGGSLRLSCAASGFTFWYYAMGWYRQAPGKERELVATITSGDSTKYADSVKGRFTISRDNAKNTVYLQMNSLKPEDTAVYYCAAEKVLPFIGYDYWGQGTQVTVSS”, the “polyreactivity (PSR sort gate)” value is “low polyreactivity”.

Regarding “QVQLVESGGGLVQAGGSLRLSCAASGSTFYGNAMGWYRQAPGKERELVGAIRWRGGRTYYADSVKGRFTISRDNANNTVYLQMNSLKPEDTAVYYCNALPGVSHTQYDRVGYWGQGTQVTVSS”, the “polyreactivity (PSR sort gate)” value is “high polyreactivity”.

On to “QVQLVESGGGLVQAGGSLRLSCAASGITFWYNAMGWYRQAPGKERELVAAITRTGSTNYADSVKGRFTISRDNAKNTVYLQMNSLKPEDTAVYYCAAYLGWPWGYYSWGQGTQVTVSS”, for which the “polyreactivity (PSR sort gate)” value is recorded as “high polyreactivity”.

In the case of “QVQLVDSGGGLVQAGGSLRLSCADSGRIFVGYAMGWYTQAPGKDRELVAAINRTGSSTYYADSVKGRFTISRDNAKTTVYLQMNSLKPEDTAVYYCNARSGNRYGPRYDYWGQGTQVTVSS”, the “polyreactivity (PSR sort gate)” value is listed as “high polyreactivity”.

As to “QVQLVESGGGLVQAGGSLRLSCAASGRIFGDYGMGWYRQAPGKERELVAAITDRGGTTYYADSVKGRFTISRDNAKNTVFLQMNSLKPEDTAVYYCNARQSDIFDYDYWGKGTQVTVSS”, the “polyreactivity (PSR sort gate)” value is given as “low polyreactivity”.

On to “QVQLVESGGGLVQAGGSLRLSCAASGRTFGYYAMGWYRPAPGKERELVAAISSNTDSTYYADSVKGRFTISRDNAKNTVYLQMNSLKPEDTAVYYCAAEAYSYYPGTYEDDYWGQGTQVTVSS”, for which the “polyreactivity (PSR sort gate)” value is “low polyreactivity”.

With “QVQLVESGGGLVQAGGSLRLSCAASGSTFQIYAMGWYRQAPGKETELVAAITSSSSTNYADSVKGRFTISRDNAKNTVYLQMNSLKPEDTAVYYCAADVSWRSNWYDYWGQGTQGTVSS”, the “polyreactivity (PSR sort gate)” value is recorded as “low polyreactivity”.

Consider “QVQLVESGGGLVQAGGSLRLSCAASGSTFDRYGMGWYRQAPGKERELVAAISWSGGSTYYADSVKGRFTFSRDNAKNTVYLQMNSLKPEDTAVYYCNAVLYRFAYNYWGQGTQVTVSS”, for which the “polyreactivity (PSR sort gate)” value is reported as “low polyreactivity”.

In the case of “QVQLVESGGGIVQAGGSLRLSCAASGSTFDSYAMGWYGQAPGKERELVATISWTGSSTYYADSVKGRFTISRDNAKNTVYLQMNSLKPEDTAVYYCATDQYYEYDYWGQGTQVTVSS”, the “polyreactivity (PSR sort gate)” value was “low polyreactivity”.

As for “QVQLVESAGRLVQAGGSLRLSCSASGSIFDWYAMGWYRQEPGKERELVAAISWSGGSTYYADSVKGRFTISRDNAKNTVYLQMNSLKPEDSAVYYCYAVFLYFNDDKFDNWGQGTQVTVSS”, the “polyreactivity (PSR sort gate)” value was “low polyreactivity”.

As to “QVQLVESGGGLVQAGGSLRLSCAASGYIFIGYAMGWYRQAPGTERELVATITSGGSTNYADSVKGRFTISRDNAKNTVYLQMNSLNPEETAVYNCAAGRGRYCYSWRYLYAIFDYWGQGTQVTVSS”, the “polyreactivity (PSR sort gate)” value is listed as “low polyreactivity”.

On to “QVQLVESGGVLVQAGGSLRLSCAASRSIFQGYVMGWYRQAPGKERELVAAISYSGDSTYYADSVKGRFTNSRDNAKNTVSLQINSVKPEDTAVYYCNAYRNRYGYRTSSRRYGYWGQGTQVTVSS”, for which the “polyreactivity (PSR sort gate)” value is given as “high polyreactivity”.

Take “QVQLVESGGGLVQAGGSLRLSCAASGYIFYFNAMGRYRQAPGKERELVAVISDRDDSTYYADSVKGRFTISRDNAKNTVYLQMNSLKPEDTAVYYCAADGDTYVDDPYDYWGQGTQVTVSS”: the “polyreactivity (PSR sort gate)” value is “low polyreactivity”.

As to “QVQLVESGGGLVQAGGSLRLSCAASGYTSAKNGMGWYRQAPGKEREFVAGISRSGSSTYYADSVKGRFTISRDNAKNTVYLQMNSLKPEDTAVYFCAADWSVFTYFYGYDYWGQGTQVTVSS”, the “polyreactivity (PSR sort gate)” value is reported as “low polyreactivity”.

“QVQLVESGGGLVQAGGSLRLSCAGSGSIFHPYAMGWYRQAPGKERELVAAISKSGGNTYYADSVKGRFTISRDNAKNTVYLQMNSLKPEATAVYYCAALDYWGQGTQVTVSS”: the “polyreactivity (PSR sort gate)” value is “low polyreactivity”.

With “QVQLVESGGGLVQAGGSLRLSCAASGLTFYRNAMGWYRQAPGKEREFVAAITSTDGSTYYADSVKGRFTISRDNAKNTVYLQMNSLKPEDTAVYYCAARRRRWSGYWGQGTQVTVSS”, the “polyreactivity (PSR sort gate)” value was “high polyreactivity”.

As for “QVQLVESGGGIVQAGGSLRLSCAASGLIFFTYAMGWYSQAPGKERELVAAITTGGSTNYADSVKGRFTISRDNAKKTVYLQMNSLKPEDTAVYYCAAQRVSVLLFVRHDYWGQGTQVTVSS”, the “polyreactivity (PSR sort gate)” value was “low polyreactivity”.

“QDQLVESGGGLVQAGGSLRLSCAASGILDRYAMGWYRQAHGKERELFAAISYIAGSTYYADSVKGRFTISRDNAKNTVYLQLNSLKPEVTAVYYCAARGFGTVNGKLYGYWGQGTQVTVSS”: the “polyreactivity (PSR sort gate)” value is on record as “high polyreactivity”.

For the sequence “QVQLVESGGGLFQAGGSLRLSCAASGRIFGLYAMGWYRQAPGKERELVAAISRGGGSTYYADSVKGRFTISRDNAKNTVYLQMNSLKAEDTAFDFCATGLGYFCRLDYWGQGTQLTVSS”, the “polyreactivity (PSR sort gate)” value is “low polyreactivity”.

Regarding “QGQLVDSGGGLVQAGGSLRLSCAASGFTVTRYAMGWYRTATGKERELVAAISWNSGSTYYADSVKGRFTISRDNAKNTVYLQMNSLKPEDTAVYYCAARDDQGYCYWGQGTQVTVSS”, the “polyreactivity (PSR sort gate)” value is listed as “high polyreactivity”.

For “QVQLVESGGGLVQAGGSLRLSCAASGSTFGYYAMGWYRQAPGKERELVAAIRWSGSTYYADSVKGRFTISRDNAKNTVYLQMNSLKPEDTAVYYCAADFVKRQANRQFDYWGQGTQVTVSS”, the “polyreactivity (PSR sort gate)” value is “high polyreactivity”.

For “QVQLVESGGGLVQAGGSLRLSCVASGRTFFRYAMGWYRQAPGKERELVAVITRGGSTYYADSVKGRFTISRDNAKNTVYLQMNSLKPEDTAVYYCNADGRVQRKYDYWGQGTQVTVSS”, the “polyreactivity (PSR sort gate)” value is listed as “high polyreactivity”.

Regarding “QVQLVESGGGLVQAGGSLRVSCAASGRIIPSYAMGWYRQAPGKERELVAVIRSSVDGTYYADSVKGRFTISRDNAKNTVYLQMNSLKPEDTAVYYCAADSYPFFNLNQYPVREGEYGHWGQGTQVTVSS”, the “polyreactivity (PSR sort gate)” value is listed as “low polyreactivity”.

As to “QVQLVESGGGLVQAGGSLRLSCAASGRIFDRYAMGWYREAPGKERELVAAISGSGGRTYYADSVKGRFTISRDNAKNTVYLQMNSLKPEDTAVYYCAVKFSLYGQGYPKGDYWGQGTQVTVSS”, the “polyreactivity (PSR sort gate)” value is “high polyreactivity”.

As to “QVQLVESAGGLVQAGGSLRLSCAASGIIFSYYVMGWYRQAPGKERELVAAITTSGSRTYYADSVKGRFTISRDNAKITVYLQMNSLKPEVTSVYYCAAADAGLSVSSYRTYYYWGQGTQVTVSS”, the “polyreactivity (PSR sort gate)” value is “high polyreactivity”.

“QVQLVESGGGLVQAGGSLRLRCAASGSIIVPNAMGWYRQAPGKERELVAAISGRGGSTYYADSEKGRFTISRDNAKNTVSLQMKSLKPEDTAVYYCAAQDTYHSYGLYSWGQGTQVTVSS”: the “polyreactivity (PSR sort gate)” value is given as “low polyreactivity”.

On to “QVQLVESGGGLVQAGGSLRLSCAASGIIFVTNDMGWYRQAPGKERELVATITWSGGSTYYADSVKGRFTISRDTAKNTVYLQMNSLKPEDTAVYYCAAEKDAHKEDYWGQGSQVTVSS”, for which the “polyreactivity (PSR sort gate)” value is recorded as “low polyreactivity”.

In the case of “QVQLVESGGGLVQAGGSLRLSCAASGRIFYSYAMGWYREAPGKERELVAAIDESDGSTYYADSVKGRFTISRDNAKNTVYLQMNSLKQEDTADYYCNADLTLGGEFDYWGHGTQVTVSS”, the “polyreactivity (PSR sort gate)” value is listed as “low polyreactivity”.

In the case of “QVQLVESGGGLVQAGGSLRLSCAASGITFDYYAMGWYRQAPGKERELVAAISGGDSTNYADSVKGRFTISRDNEKNTVYLQMNSLKPEDTAVYYCNVQYSGLYWSYRIDFDYWGQGTQVTVSS”, the “polyreactivity (PSR sort gate)” value is recorded as “high polyreactivity”.

Turning to “QVQLVESGGGLVQAGGSLRLSCAASGNTFNDYAMGWYRQAPGKERELVASISSGGSTYYADSVKGRFTISRDNAKNTVYLQMNSLKPEDTAVYYCAAEWHYIYAYDYWGQGTQVTVSS”, the “polyreactivity (PSR sort gate)” value is recorded as “low polyreactivity”.

For the sequence “QVQLVESGGGLVQAGGSLRLSCAASGFIFSSNAMGWYRQAPGKERELVATISSDGSTNYADSVKGRFTISRDNAKNTVYLQMNSLKPEDTAVYYCAADLSLTIGTWTVLDTKYDYWGQGTQVTVSS”, the “polyreactivity (PSR sort gate)” value is “low polyreactivity”.

Take “QVQLVESGGGLVQAGGSLRLSCAASGRTFYNYAMGWYRQAPGKERELVASIRKNGGSTYYADSVKGRFTISRDNAKNTVYLQMNSLKPEDTAVYYCDARYWGISRIFPSKYDYWGQGTQVTVSS”: the “polyreactivity (PSR sort gate)” value is “high polyreactivity”.

Regarding “QVQLVESGGGLVQAGGSLRLSCAASGRTFGTNALGWYRQAPGKERELVASIDLSADSTYYADSVKGRFTISRDNAKKTVYLQMNSLKPEDTAVYYCNKDGYPWPPNLDYWGQGTQVTVSS”, the “polyreactivity (PSR sort gate)” value is listed as “low polyreactivity”.

Take “QVQLVESGGGLDQAGGSLRLSCAASGFIFYRYVMGWYRQAPGKERELVATISSGGSTNYADSVKGRFTISRDNAKNTVYLQMNSLKPEDTAVYYCAKRRYFYNYYEYDYWGQGTQVTVSS”: the “polyreactivity (PSR sort gate)” value is “high polyreactivity”.

For “QVQLVESGGGLFQAGGSLRLSCAASGRIFYYNAMGWYRQAPGKEREFVAAITYRGGSTYYADSVKGRFTISRDNAKITVYLQMNSLKPEDTAVYYCAARSAWQVAPRGRTVAFDYWGQGTQVTVSS”, the “polyreactivity (PSR sort gate)” value is recorded as “high polyreactivity”.

For the sequence “QVQLEESGGGLVQAGGSLRLSCAASGRIRYYAMGWYRQAPGKERELVAAISSTGGSTYYADSVKGRFTISRDNAKNTVYFQMNSLKPEDTAVYYCNVAWIWGKYEYWGQGTQVTVSS”, the “polyreactivity (PSR sort gate)” value is recorded as “high polyreactivity”.

For the sequence “QVQLVESGGGLVQAGGSLRLSCAASGFIFWAYDMGWYRQAPGKERELVAGIDWSGGSTYYADSVKGRFTISRDNAKNTVYLQMNSLKPEDTAVYYCAADRLLYGGGREYWGQGTQVTVSS”, the “polyreactivity (PSR sort gate)” value was “high polyreactivity”.

Consider “EVQLVESRGGLVQAGGSLRLSCAASGSILVGYAMGWYRQAPGKERELVAAISFSGGSTYYADSVKGRFTISRDNAKNTVFLQLNSLKPEDTAVYYCASKRRVWIFYSSSDDYWGQGTQVTVSS”, for which the “polyreactivity (PSR sort gate)” value is given as “low polyreactivity”.
